Measurements as given in US20080019909A1, “Modulation of Programmed Necrosis” (priority 2003, published 2008).

Columns and labels:
[1] = system: TNFR-2+ RIP -/- Jurkat cells (R1.1); test: TNF cytotoxic assay (cell loss by PI exclusion on FACS), TNFR-2+ RIP -/- cells; assay type: cell-based; conditions: TNFR-2+ RIP -/- cells reconstituted with RIP mutants, stimulated with TNF
Source text: The results are representative of three experiments.

caspase-8 -/- J3.2 cells = test: TNF cytotoxic assay (cell loss by PI exclusion on FACS), caspase-8 -/- J3.2 cells; conditions: for TNF-induced programmed necrosis, transfected kinase-inactive constructs: caspase-8 -/- J3.2 cells co-transfected with pEGFP-N1, 10 ng/ml rhTNFα, 16 hours, GFP positive cells
FADD -/- I42 cells = test: TNF cytotoxic assay (cell loss by PI exclusion on FACS), FADD -/- I42 cells; assay type: cell-based; conditions: FADD -/- cells (I42) transiently transfected; TNF 12 hours; GFP+ cells
Method: Cells were stimulated with, TNF or anti-Fas antibody (CH11) for 12 hours and cell loss was analyzed on the GFP+ cells by PI exclusion on FACS.
FIG. 8F is a bar graph depicting the results of experiments in which FADD -/- I42 cells and caspase-8 -/- J3.2 cells (both are TNFR-2+) were stimulated with TNF in the presence or absence of zVAD-fmk for 16 hours.

Molecule | restoration of response to TNF (TNF killing) by transfected RIP constructs [1] | further results
RIPc: C-terminal fragment of RIP (amino acids 325-671) (protein, UniProt Q13546 325-671, looked up, fragment) CVAVPSSRSNSATEQPGSLHSSQGLGMGPVEESWFAPSLEHPQEENEPSLQSKLQDEANYHLYGSRMDRQTKQQPRQNVAYNREEERRRRVSHDPFAQQRPYENFQNTEGKGTAYSSAASHGNAVHQPSGLTSQPQVLYQNNGLYSSHGFGTRPLDPGTAGPRVWYRPIPSHMPSLHNIPVPETNYLGNTPTMPFSSLPPTDESIKYTIYNSTGIQIGAYNYMEIGGTSSSLLDSTNTNFKEEPAAKYQAIFDNTTSLTDKHLDPIRENLGKHWKNCARKLGFTQSQIDEIDHDYERDGLKEKVYQMLQKWVMREGIKGATVGKLAQALHQCSRIDLLSSLIYVSQN | restored | –
RIPn: N-terminal cleavage product of RIP (amino acids 1-324) (protein, UniProt Q13546 1-324, looked up, fragment) MQPDMSLNVIKMKSSDFLESAELDSGGFGKVSLCFHRTQGLMIMKTVYKGPNCIEHNEALLEEAKMMNRLRHSRVVKLLGVIIEEGKYSLVMEYMEKGNLMHVLKAEMSTPLSVKGRIILEIIEGMCYLHGKGVIHKDLKPENILVDNDFHIKIADLGLASFKMWSKLNNEEHNELREVDGTAKKNGGTLYYMAPEHLNDVNAKPTEKSDVYSFAVVLWAIFANKEPYENAICEQQLIMCIKSGNRPDVDDITEYCPREIISLMKLCWEANPEARPTFPGIEEKFRPFYLSQLEESVEEDVKSLKKEYSNENAVVKRMQSLQLD | failed to restore | –
kinase-inactive form of apoptosis signaling kinase ASK1: kinase inactive version of ASK1, expressed from transfected plasmid (protein, UniProt Q99683 1-1374, looked up, variant K709R) Mitogen-activated protein …: MSTEADEGITFSVPPFAPSGFCTIPEGGICRRGGAAAVGEGEEHQLPPPPPGSFWNVESAAAPGIGCPAATSSSSATRGRGSSVGGGSRRTTVAYVINEASQGQLVVAESEALQSLREACETVGATLETLHFGKLDFGETTVLDRFYNADIAVVEMSDAFRQPSLFYHLGVRESFSMANNIILYCDTNSDSLQSLKEIICQKNTMCTGNYTFVPYMITPHNKVYCCDSSFMKGLTELMQPNFELLLGPICLPLVDRFIQLLKVAQASSSQYFRESILNDIRKARNLYTGKELAAELARIRQRVDNIEVLTADIVINLLLSYRDIQDYDSIVKLVETLEKLPTFDLASHHHVKFHYAFALNRRNLPGDRAKALDIMIPMVQSEGQVASDMYCLVGRIYKDMFLDSNFTDTESRDHGASWFKKAFESEPTLQSGINYAVLLLAAGHQFESSFELRKVGVKLSSLLGKKGNLEKLQSYWEVGFFLGASVLANDHMRVIQASEKLFKLKTPAWYLKSIVETILIYKHFVKLTTEQPVAKQELVDFWMDFLVEATKTDVTVVRFPVLILEPTKIYQPSYLSINNEVEEKTISIWHVLPDDKKGIHEWNFSASSVRGVSISKFEERCCFLYVLHNSDDFQIYFCTELHCKKFFEMVNTITEEKGRSTEEGDCESDLLEYDYEYDENGDRVVLGKGTYGIVYAGRDLSNQVRIAIREIPERDSRYSQPLHEEIALHKHLKHKNIVQYLGSFSENGFIKIFMEQVPGGSLSALLRSKWGPLKDNEQTIGFYTKQILEGLKYLHDNQIVHRDIKGDNVLINTYSGVLKISDFGTSKRLAGINPCTETFTGTLQYMAPEIIDKGPRGYGKAADIWSLGCTIIEMATGKPPFYELGEPQAAMFKVGMFKVHPEIPESMSAEAKAFILKCFEPDPDKRACANDLLVDEFLKVSSKKKKTQPKLSALSAGSNEYLRSISLPVPVLVEDTSSSSEYGSVSPDTELKVDPFSFKTRAKSCGERDVKGIRTLFLGIPDENFEDHSAPPSPEEKDSGFFMLRKDSERRATLHRILTEDQDKIVRNLMESLAQGAEEPKLKWEHITTLIASLREFVRSTDRKIIATTLSKLKLELDFDSHGISQVQVVLFGFQDAVNKVLRNHNIKPHWMFALDSIIRKAVQTAITILVPELRPHFSLASESDTADQEDLDVEDDHEEQPSNQTVRRPQAVIEDAVATSGVSTLSSTVSHDSQSAHRSLNVQLGRMKIETNRLLEELVRKEKELQALLHRAIEEKDQEIKHLKLKSQPIEIPELPVFHLNSSGTNTEDSELTDWLRVNGADEDTISRFLAEDYTLLDVLYYVTRDDLKCLRLRGGMLCTLWKAIIDFRNKQT | – | TNF-induced programmed necrosis, transfected kinase-inactive constructs (caspase-8 -/- J3.2 cells): not
kinase-inactive RIP: kinase inactive version of RIP (K45A mutation), expressed from transfected plasmid (protein, UniProt Q13546 1-671, looked up, variant K45A) Receptor-interacting …: MQPDMSLNVIKMKSSDFLESAELDSGGFGKVSLCFHRTQGLMIMATVYKGPNCIEHNEALLEEAKMMNRLRHSRVVKLLGVIIEEGKYSLVMEYMEKGNLMHVLKAEMSTPLSVKGRIILEIIEGMCYLHGKGVIHKDLKPENILVDNDFHIKIADLGLASFKMWSKLNNEEHNELREVDGTAKKNGGTLYYMAPEHLNDVNAKPTEKSDVYSFAVVLWAIFANKEPYENAICEQQLIMCIKSGNRPDVDDITEYCPREIISLMKLCWEANPEARPTFPGIEEKFRPFYLSQLEESVEEDVKSLKKEYSNENAVVKRMQSLQLDCVAVPSSRSNSATEQPGSLHSSQGLGMGPVEESWFAPSLEHPQEENEPSLQSKLQDEANYHLYGSRMDRQTKQQPRQNVAYNREEERRRRVSHDPFAQQRPYENFQNTEGKGTAYSSAASHGNAVHQPSGLTSQPQVLYQNNGLYSSHGFGTRPLDPGTAGPRVWYRPIPSHMPSLHNIPVPETNYLGNTPTMPFSSLPPTDESIKYTIYNSTGIQIGAYNYMEIGGTSSSLLDSTNTNFKEEPAAKYQAIFDNTTSLTDKHLDPIRENLGKHWKNCARKLGFTQSQIDEIDHDYERDGLKEKVYQMLQKWVMREGIKGATVGKLAQALHQCSRIDLLSSLIYVSQN | restored | TNF-induced programmed necrosis, transfected kinase-inactive constructs (caspase-8 -/- J3.2 cells): strongly suppressed
RIP-D324A: non-cleavable mutant of RIP (protein, UniProt Q13546 1-671, looked up, variant D324A) Receptor-interacting …: MQPDMSLNVIKMKSSDFLESAELDSGGFGKVSLCFHRTQGLMIMKTVYKGPNCIEHNEALLEEAKMMNRLRHSRVVKLLGVIIEEGKYSLVMEYMEKGNLMHVLKAEMSTPLSVKGRIILEIIEGMCYLHGKGVIHKDLKPENILVDNDFHIKIADLGLASFKMWSKLNNEEHNELREVDGTAKKNGGTLYYMAPEHLNDVNAKPTEKSDVYSFAVVLWAIFANKEPYENAICEQQLIMCIKSGNRPDVDDITEYCPREIISLMKLCWEANPEARPTFPGIEEKFRPFYLSQLEESVEEDVKSLKKEYSNENAVVKRMQSLQLACVAVPSSRSNSATEQPGSLHSSQGLGMGPVEESWFAPSLEHPQEENEPSLQSKLQDEANYHLYGSRMDRQTKQQPRQNVAYNREEERRRRVSHDPFAQQRPYENFQNTEGKGTAYSSAASHGNAVHQPSGLTSQPQVLYQNNGLYSSHGFGTRPLDPGTAGPRVWYRPIPSHMPSLHNIPVPETNYLGNTPTMPFSSLPPTDESIKYTIYNSTGIQIGAYNYMEIGGTSSSLLDSTNTNFKEEPAAKYQAIFDNTTSLTDKHLDPIRENLGKHWKNCARKLGFTQSQIDEIDHDYERDGLKEKVYQMLQKWVMREGIKGATVGKLAQALHQCSRIDLLSSLIYVSQN | potently restored | –
wild-type RIP: wild-type receptor-interacting protein expressed in RIP -/- cells (protein, UniProt Q13546 1-671, looked up) Receptor-interacting …: MQPDMSLNVIKMKSSDFLESAELDSGGFGKVSLCFHRTQGLMIMKTVYKGPNCIEHNEALLEEAKMMNRLRHSRVVKLLGVIIEEGKYSLVMEYMEKGNLMHVLKAEMSTPLSVKGRIILEIIEGMCYLHGKGVIHKDLKPENILVDNDFHIKIADLGLASFKMWSKLNNEEHNELREVDGTAKKNGGTLYYMAPEHLNDVNAKPTEKSDVYSFAVVLWAIFANKEPYENAICEQQLIMCIKSGNRPDVDDITEYCPREIISLMKLCWEANPEARPTFPGIEEKFRPFYLSQLEESVEEDVKSLKKEYSNENAVVKRMQSLQLDCVAVPSSRSNSATEQPGSLHSSQGLGMGPVEESWFAPSLEHPQEENEPSLQSKLQDEANYHLYGSRMDRQTKQQPRQNVAYNREEERRRRVSHDPFAQQRPYENFQNTEGKGTAYSSAASHGNAVHQPSGLTSQPQVLYQNNGLYSSHGFGTRPLDPGTAGPRVWYRPIPSHMPSLHNIPVPETNYLGNTPTMPFSSLPPTDESIKYTIYNSTGIQIGAYNYMEIGGTSSSLLDSTNTNFKEEPAAKYQAIFDNTTSLTDKHLDPIRENLGKHWKNCARKLGFTQSQIDEIDHDYERDGLKEKVYQMLQKWVMREGIKGATVGKLAQALHQCSRIDLLSSLIYVSQN | potently restored | –
p35: known apoptosis inhibitor, transfected plasmid (protein, UniProt P08160 1-299, looked up) Early 35 kDa protein: MCVIFPVEIDVSQTIIRDCQVDKQTRELVYINKIMNTQLTKPVLMMFNISGPIRSVTRKNNNLRDRIKSKVDEQFDQLERDYSDQMDGFHDSIKYFKDEHYSVSCQNGSVLKSKFAKILKSHDYTDKKSIEAYEKYCLPKLVDERNDYYVAVCVLKPGFENGSNQVLSFEYNPIGNKVIVPFAHEINDTGLYEYDVVAYVDSVQFDGEQFEEFVQSLILPSSFKNSEKVLYYNEASKNKSMIYKALEFTTESSWGKSEKYNWKIFCNGFIYDKKSKVLYVKLHNVTSALNKNVILNTIK | – | TNF-induced programmed necrosis, transfected apoptosis inhibitors (caspase-8 -/- J3.2 cells; caspase 8 -/- J3.2 cells transfected with plasmids, 12 hours stimulation with TNF): failed to confer protection
full-length FADD: full-length FADD transiently transfected into FADD -/- cells (protein, UniProt Q13158 1-208, looked up, full-length, full-length FADD transiently transfected into FADD -/- cells) MDPFLVLLHSVSSSLSSSELTELKFLCLGRVGKRKLERVQSGLDLFSMLLEQNDLEPGHTELLRELLASLRRHDLLRRVDDFEAGAAAGAAPGEEDLCAAFNVICDNVGKDWRRLARQLKVSDTKIDSIEDRYPRNLTERVRESLRIWKNTEKENATVAHLVGALRSCQMNLVADLVQEVQQARDLQNRSGAMSPMSWNSDASTSEAS | – | TNF-induced programmed necrosis after reconstitution of FADD (FADD -/- I42 cells): suppression
